Experimental data from US20260167699A1 (Chugai, published 2026).

B1: GpH7-A5/GpH7-B3 variant T335_02A/GpL16-k0 (antibody, human IgG1, kappa)
heavy 1: not shown
heavy 2: not shown
light: DIVMTQSPLSLPVTPGEPASISCQASESLVHSNRNTYLHWYLQKPGQSPQLLIYKVSNRFSGVPDRFSGSGSGTDFTLKISRVEAEDVGVYYCSQNTHVPPTFGQGTKVEIERTVAAPSVFIFPPSDEQLKSGTASVVCLLNNFYPREAKVQWKVDNALQSGNSQESVTEQDSKDSTYSLSSTLTLSKADYEKHKVYACEVTHQGLSSPVTKSFNRGEC
notes: copies: 1 + 1 + 2
B2: GpH7-A5/GpH7-B3 variant T335_06M/GpL16-k0 (antibody, human IgG1, kappa)
heavy 1: not shown
heavy 2: not shown
light: DIVMTQSPLSLPVTPGEPASISCQASESLVHSNRNTYLHWYLQKPGQSPQLLIYKVSNRFSGVPDRFSGSGSGTDFTLKISRVEAEDVGVYYCSQNTHVPPTFGQGTKVEIERTVAAPSVFIFPPSDEQLKSGTASVVCLLNNFYPREAKVQWKVDNALQSGNSQESVTEQDSKDSTYSLSSTLTLSKADYEKHKVYACEVTHQGLSSPVTKSFNRGEC
notes: copies: 1 + 1 + 2
B3: GpH7-A5/GpH7-B3 variant T335_08L/GpL16-k0 (antibody, human IgG1, kappa)
heavy 1: not shown
heavy 2: not shown
light: DIVMTQSPLSLPVTPGEPASISCQASESLVHSNRNTYLHWYLQKPGQSPQLLIYKVSNRFSGVPDRFSGSGSGTDFTLKISRVEAEDVGVYYCSQNTHVPPTFGQGTKVEIERTVAAPSVFIFPPSDEQLKSGTASVVCLLNNFYPREAKVQWKVDNALQSGNSQESVTEQDSKDSTYSLSSTLTLSKADYEKHKVYACEVTHQGLSSPVTKSFNRGEC
notes: copies: 1 + 1 + 2
B4: GpH7-A5/GpH7-B3 variant T335_11K/GpL16-k0 (antibody, human IgG1, kappa)
heavy 1: not shown
heavy 2: not shown
light: DIVMTQSPLSLPVTPGEPASISCQASESLVHSNRNTYLHWYLQKPGQSPQLLIYKVSNRFSGVPDRFSGSGSGTDFTLKISRVEAEDVGVYYCSQNTHVPPTFGQGTKVEIERTVAAPSVFIFPPSDEQLKSGTASVVCLLNNFYPREAKVQWKVDNALQSGNSQESVTEQDSKDSTYSLSSTLTLSKADYEKHKVYACEVTHQGLSSPVTKSFNRGEC
notes: copies: 1 + 1 + 2
B5: GpH7-A5/GpH7-B3 variant Y296_02A/GpL16-k0 (antibody, human IgG1, kappa)
heavy 1: not shown
heavy 2: not shown
light: DIVMTQSPLSLPVTPGEPASISCQASESLVHSNRNTYLHWYLQKPGQSPQLLIYKVSNRFSGVPDRFSGSGSGTDFTLKISRVEAEDVGVYYCSQNTHVPPTFGQGTKVEIERTVAAPSVFIFPPSDEQLKSGTASVVCLLNNFYPREAKVQWKVDNALQSGNSQESVTEQDSKDSTYSLSSTLTLSKADYEKHKVYACEVTHQGLSSPVTKSFNRGEC
notes: copies: 1 + 1 + 2
B6: GpH7-A5/GpH7-B3 variant V266_06M/GpL16-k0 (antibody, human IgG1, kappa)
heavy 1: not shown
heavy 2: not shown
light: DIVMTQSPLSLPVTPGEPASISCQASESLVHSNRNTYLHWYLQKPGQSPQLLIYKVSNRFSGVPDRFSGSGSGTDFTLKISRVEAEDVGVYYCSQNTHVPPTFGQGTKVEIERTVAAPSVFIFPPSDEQLKSGTASVVCLLNNFYPREAKVQWKVDNALQSGNSQESVTEQDSKDSTYSLSSTLTLSKADYEKHKVYACEVTHQGLSSPVTKSFNRGEC
notes: copies: 1 + 1 + 2
B7: GpH7-A5/GpH7-B3 variant Y296_01G/GpL16-k0 (antibody, human IgG1, kappa)
heavy 1: not shown
heavy 2: not shown
light: DIVMTQSPLSLPVTPGEPASISCQASESLVHSNRNTYLHWYLQKPGQSPQLLIYKVSNRFSGVPDRFSGSGSGTDFTLKISRVEAEDVGVYYCSQNTHVPPTFGQGTKVEIERTVAAPSVFIFPPSDEQLKSGTASVVCLLNNFYPREAKVQWKVDNALQSGNSQESVTEQDSKDSTYSLSSTLTLSKADYEKHKVYACEVTHQGLSSPVTKSFNRGEC
notes: copies: 1 + 1 + 2
B8: GpH7-A5/GpH7-B3 variant T335_18N/GpL16-k0 (antibody, human IgG1, kappa)
heavy 1: not shown
heavy 2: not shown
light: DIVMTQSPLSLPVTPGEPASISCQASESLVHSNRNTYLHWYLQKPGQSPQLLIYKVSNRFSGVPDRFSGSGSGTDFTLKISRVEAEDVGVYYCSQNTHVPPTFGQGTKVEIERTVAAPSVFIFPPSDEQLKSGTASVVCLLNNFYPREAKVQWKVDNALQSGNSQESVTEQDSKDSTYSLSSTLTLSKADYEKHKVYACEVTHQGLSSPVTKSFNRGEC
notes: copies: 1 + 1 + 2
B9: GpH7-A5/GpH7-B3 variant T335_20W/GpL16-k0 (antibody, human IgG1, kappa)
heavy 1: not shown
heavy 2: not shown
light: DIVMTQSPLSLPVTPGEPASISCQASESLVHSNRNTYLHWYLQKPGQSPQLLIYKVSNRFSGVPDRFSGSGSGTDFTLKISRVEAEDVGVYYCSQNTHVPPTFGQGTKVEIERTVAAPSVFIFPPSDEQLKSGTASVVCLLNNFYPREAKVQWKVDNALQSGNSQESVTEQDSKDSTYSLSSTLTLSKADYEKHKVYACEVTHQGLSSPVTKSFNRGEC
notes: copies: 1 + 1 + 2
B10: GpH7-A5/GpH7-B3 variant T335_04F/GpL16-k0 (antibody, human IgG1, kappa)
heavy 1: not shown
heavy 2: not shown
light: DIVMTQSPLSLPVTPGEPASISCQASESLVHSNRNTYLHWYLQKPGQSPQLLIYKVSNRFSGVPDRFSGSGSGTDFTLKISRVEAEDVGVYYCSQNTHVPPTFGQGTKVEIERTVAAPSVFIFPPSDEQLKSGTASVVCLLNNFYPREAKVQWKVDNALQSGNSQESVTEQDSKDSTYSLSSTLTLSKADYEKHKVYACEVTHQGLSSPVTKSFNRGEC
notes: copies: 1 + 1 + 2
B11: GpH7-A5/GpH7-B3 variant T335_07I/GpL16-k0 (antibody, human IgG1, kappa)
heavy 1: not shown
heavy 2: not shown
light: DIVMTQSPLSLPVTPGEPASISCQASESLVHSNRNTYLHWYLQKPGQSPQLLIYKVSNRFSGVPDRFSGSGSGTDFTLKISRVEAEDVGVYYCSQNTHVPPTFGQGTKVEIERTVAAPSVFIFPPSDEQLKSGTASVVCLLNNFYPREAKVQWKVDNALQSGNSQESVTEQDSKDSTYSLSSTLTLSKADYEKHKVYACEVTHQGLSSPVTKSFNRGEC
notes: copies: 1 + 1 + 2

target: T1, FcγRIIIa (human, UniProt P08637 17-208); assay: SPR (Biacore);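 note: antibody variants captured on an SPR sensor chip, with FcγRIIIa passed over as analyte in HBS-EP+ buffer at 25 °C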
T1 construct: extracellular domain; also called 3a; FcγRIIIa extracellular domain
T1 sequence (P08637 other isoform, or with tags, fused parts or gaps): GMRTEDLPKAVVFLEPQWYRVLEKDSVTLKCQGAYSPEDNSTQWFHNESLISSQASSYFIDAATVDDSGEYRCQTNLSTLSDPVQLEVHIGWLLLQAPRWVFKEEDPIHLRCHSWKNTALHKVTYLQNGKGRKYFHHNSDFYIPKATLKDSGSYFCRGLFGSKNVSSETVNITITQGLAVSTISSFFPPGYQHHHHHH

Row | Binder | He/Con 3a
1 | B1 | 90.9 % of GpH7-A5/GpH7-B3/GpL16-k0
2 | B2 | 97 % of GpH7-A5/GpH7-B3/GpL16-k0
3 | B3 | 97.8 % of GpH7-A5/GpH7-B3/GpL16-k0
4 | B4 | 91.7 % of GpH7-A5/GpH7-B3/GpL16-k0
5 | B5 | 66.3 % of GpH7-A5/GpH7-B3/GpL16-k0
6 | B6 | 84.9 % of GpH7-A5/GpH7-B3/GpL16-k0
7 | B7 | 51.3 % of GpH7-A5/GpH7-B3/GpL16-k0
8 | B8 | 94.4 % of GpH7-A5/GpH7-B3/GpL16-k0
9 | B9 | 97.3 % of GpH7-A5/GpH7-B3/GpL16-k0
10 | B10 | 91.7 % of GpH7-A5/GpH7-B3/GpL16-k0
11 | B11 | 102 % of GpH7-A5/GpH7-B3/GpL16-k0
